Assay results as given in patent US20180037644A1 (Pfizer, published 2018).

Legend:
[1] = target: T1, wild-type cynomolgus monkey IL-33 (cynomolgus monkey); assay: SPR, Experiment 1; reference: human IL-33 (WT + DTT)
T1 construct: Used reduced (DTT-treated); His6 in the entry; also called cyno IL-33 (WT + DTT); pfe cyno WT IL-33
T1 chain: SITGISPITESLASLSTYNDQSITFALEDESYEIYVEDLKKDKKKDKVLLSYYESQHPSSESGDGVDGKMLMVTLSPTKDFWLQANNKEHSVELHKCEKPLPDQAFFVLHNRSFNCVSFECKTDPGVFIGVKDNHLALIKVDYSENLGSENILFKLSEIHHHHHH
Procedure: (§1) Biacore kinetic assays were conducted at 37° C. at a collection rate of 1 Hz on a Biacore T200 instrument (GE Healthcare). Reduced and non-reduced wild-type human IL-33 and reduced wild-type cynomolgus monkey IL-33 were covalently coupled to a CM5 sensor chip (catalogue number BR100530, GE Healthcare) using an amine coupling kit (catalogue number BR100050, GE Healthcare) according to the manufacturer's protocol. Flow cell 1 was activated and blocked for use as a reference flow cell. […] The dilution and running buffer was HBS-EP+(10 mM HEPES pH 7.4, 0.15M NaCl, 3 mM EDTA, 0.05% P-20). Rate constants and affinities were determined by fitting the resulting sensorgram data to a 1:1 model in Biacore T200 Evaluation software version 1.0 (GE Healthcare). […] Kinetic properties of the bivalent IgG cannot be directly compared to those of monovalent Fab fragments and are not presented here.

[2] = target: T1, wild-type cynomolgus monkey IL-33; assay: SPR, Experiment 2; reference: human IL-33 (WT + DTT)
Procedure: as §1

human IL-33 (mm2) = target: T2, human IL-33 (mm2) (human, UniProt O95760 112-270); assay: SPR, IL-33 amine-coupled to CM5, Fab in solution, 37 C
T2 construct: Variant in which all four cysteine residues are serine; the entry carries an N-terminal Met and a C-terminal His6; Biotinylated in some assays; also called hIL-33 (mm2); huIL-33 (mm2)
T2 chain: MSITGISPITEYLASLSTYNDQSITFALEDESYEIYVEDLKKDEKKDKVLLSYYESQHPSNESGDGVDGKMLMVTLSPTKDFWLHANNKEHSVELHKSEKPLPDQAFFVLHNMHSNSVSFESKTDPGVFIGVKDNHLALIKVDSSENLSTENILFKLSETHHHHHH
Procedure: (§2) Biacore kinetic assays were conducted at 37° C. at a collection rate of 1 Hz on a Biacore T200 instrument (GE Healthcare). Human IL33 (mm2), cynomolgus monkey IL-33, and reduced huIL33 wt were covalently coupled to a CM5 sensor chip (catalogue number BR100530, GE Healthcare) using an amine coupling kit (catalogue number BR100050, GE Healthcare) according to the manufacturer's protocol. […] The dilution and running buffer was HBS-EP+(10 mM HEPES pH 7.4, 0.15M NaCl, 3 mM EDTA, 0.05% P-20). Rate constants and affinities were determined by fitting the resulting sensorgram data to a 1:1 model in Biacore T200 Evaluation software version 1.0 (GE Healthcare).

[3] = target: T3, human IL-33 WT, reduced with DTT (human, UniProt O95760 112-270); assay: as above
T3 construct: Wild-type cysteines, FLAG tag in the entry; reduced with 3 mM DTT before use; also called huIL33 wt; hu IL-33 (WT + DTT)
T3 sequence: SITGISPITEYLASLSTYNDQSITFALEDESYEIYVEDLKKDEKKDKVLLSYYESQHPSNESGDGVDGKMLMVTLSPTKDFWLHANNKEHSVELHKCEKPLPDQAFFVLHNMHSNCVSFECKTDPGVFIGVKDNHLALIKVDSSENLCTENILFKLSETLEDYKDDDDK
Procedure: as §2

[4] = target: T4, cynomolgus monkey IL-33 (cys mut) (cynomolgus monkey); assay: as above
T4 construct: Variant in which the three cysteine residues are serine; N-terminal Met and C-terminal His6 in the entry; also called cyno IL-33; cyno IL-33 (cys mut)
T4 chain: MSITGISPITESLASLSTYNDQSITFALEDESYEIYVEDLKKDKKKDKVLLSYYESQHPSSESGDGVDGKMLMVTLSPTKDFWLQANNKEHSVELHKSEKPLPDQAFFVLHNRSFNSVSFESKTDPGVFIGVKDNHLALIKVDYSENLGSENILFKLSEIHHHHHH
Procedure: as §2

[5] = target: T3, human IL-33 WT, reduced with DTT; assay: SPR, IL-33 amine-coupled to CM5, Fab in solution, 37 C, Experiment 1
Procedure: as §1

[6] = target: T1, wild-type cynomolgus monkey IL-33; assay: as above
Procedure: as §1

[7] = target: T3, human IL-33 WT, reduced with DTT; assay: SPR, IL-33 amine-coupled to CM5, Fab in solution, 37 C, Experiment 2
Procedure: as §1

[8] = target: T1, wild-type cynomolgus monkey IL-33; assay: as above
Procedure: as §1

IL-1α = target: T5, IL-1α (UniProt P01583 113-271); assay: SPR (Biacore T200), Fab captured on the chip, cytokine injected
T5 sequence (looked up): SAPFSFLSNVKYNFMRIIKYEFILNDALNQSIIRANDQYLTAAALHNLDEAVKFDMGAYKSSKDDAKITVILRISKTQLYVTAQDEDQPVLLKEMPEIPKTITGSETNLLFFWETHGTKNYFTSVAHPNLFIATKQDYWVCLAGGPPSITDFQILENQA
Text: (§3) The panel of cytokines included IL-1α, IL-1β, IL-18, IL-36α, and IL-36γ.

IL-1β = IL-1β (UniProt P01584 117-269); assay: as above
Text: as §3

IL-18 = target: T6, IL-18 (UniProt Q14116 37-193); assay: as above
T6 sequence (looked up): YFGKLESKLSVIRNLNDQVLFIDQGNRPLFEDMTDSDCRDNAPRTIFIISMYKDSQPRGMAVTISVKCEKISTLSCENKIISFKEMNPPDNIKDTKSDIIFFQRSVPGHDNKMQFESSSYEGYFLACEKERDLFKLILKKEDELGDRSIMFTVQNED
Text: as §3

IL-36α = target: T7, IL-36α (UniProt Q9UHA7 6-158); assay: as above
T7 sequence (looked up): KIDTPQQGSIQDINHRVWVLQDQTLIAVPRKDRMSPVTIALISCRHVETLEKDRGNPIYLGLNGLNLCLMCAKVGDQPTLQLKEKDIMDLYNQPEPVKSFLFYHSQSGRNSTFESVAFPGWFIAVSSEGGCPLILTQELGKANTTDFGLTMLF
Text: as §3

IL-36γ = target: T8, IL-36γ (UniProt Q9NZH8 18-169); assay: as above
T8 sequence (looked up): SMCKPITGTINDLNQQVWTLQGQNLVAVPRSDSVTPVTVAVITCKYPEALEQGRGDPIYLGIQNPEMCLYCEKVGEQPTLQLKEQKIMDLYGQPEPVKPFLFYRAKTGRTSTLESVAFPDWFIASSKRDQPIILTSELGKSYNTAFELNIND
Text: as §3

| Binder | Ratio of cynomolgus monkey KD/human KD [1] | Ratio of cynomolgus monkey KD/human KD [2] | Kd (human IL-33 (mm2)) [nM] | koff (human IL-33 (mm2)) [s⁻¹] | kon (human IL-33 (mm2)) [M⁻¹ s⁻¹] | Kd [3] [nM] | koff [3] [s⁻¹] | kon [3] [M⁻¹ s⁻¹] | Kd [4] [nM] | koff [4] [s⁻¹] | kon [4] [M⁻¹ s⁻¹] | Kd [5] [nM] | koff [5] [s⁻¹] | kon [5] [M⁻¹ s⁻¹] | Kd [6] [nM] | koff [6] [s⁻¹] | kon [6] [M⁻¹ s⁻¹] | Kd [7] [nM] | koff [7] [s⁻¹] | kon [7] [M⁻¹ s⁻¹] | further results |
| --- | --- | --- | --- | --- | --- | --- | --- | --- | --- | --- | --- | --- | --- | --- | --- | --- | --- | --- | --- | --- | --- |
| IL33-158LS Fab (Fab, V domains shown) VH: EVQLVESGGGLVQPGGSLRLSCAASGFTFSSYWMYWVRQAPGKGLEWVAAITPNAGEDYYPESVKGRFTISRDNAKNSLYLQMNSLRAEDTAVYYCARGHYYYTSYSLGYWGQGTLVTVSS VL: DIQMTQSPSSLSASVGDRVTITCKASQNINKHLDWYQQKPGKAPKLLIYFTNNLQTGVPSRFSGSGSGTDFTLTISSLQPEDFATYYCFQYNQGWTFGGGTKVEIKR | 1.3 | 2.3 | 0.013 | 3.09e-05 | 2.42e+06 | 0.0696 | 0.000129 | 1.86e+06 | 0.0104 | 1.71e-05 | 1.64e+06 | 0.106 | 0.00033 | 3.13e+06 | 0.139 | 0.00062 | 4.5e+06 | 0.101 | 0.000417 | 4.11e+06 | Kd [8]: 0.228 nM; koff [8]: 0.00121 s⁻¹; kon [8]: 5.32e+06 M⁻¹ s⁻¹; binding result (IL-1α): no binding; binding result (IL-1β): no binding; binding result (IL-18): no binding; binding result (IL-36α): no binding; binding result (IL-36γ): no binding |
| IL33-167LS Fab (Fab, V domains shown) VH: EVQLVESGGGLVQPGGSLRLSCAASGFTFSSYWMYWVRQAPGKGLEWVASITPNAGEDYYPDSVKGRFTISRDNAKNSLYLQMNSLRAEDTAVYYCARGHYYYTSYSLGYWGQGTLVTVSS VL: DIQMTQSPSSLSASVGDRVTITCKASQNINKHLDWYQQKPGKAPKLLIYFTNNLQTGVPSRFSGSGSGTDFTLTISSLQPEDFATYYCFQYNNGWTFGGGTKVEIKR | 1.5 | 2.5 | 0.0101 | 4.8e-05 | 4.75e+06 | 0.0452 | 6.56e-05 | 1.45e+06 | 0.0134 | 2.09e-05 | 1.57e+06 | 0.091 | 0.000276 | 3.03e+06 | 0.139 | 0.000665 | 4.81e+06 | 0.089 | 0.00035 | 3.96e+06 | Kd [8]: 0.218 nM; koff [8]: 0.00119 s⁻¹; kon [8]: 5.5e+06 M⁻¹ s⁻¹ |
